Numbering of substitutions follows the chain as printed.
Assays:
Test in all cases: co-IP
[1] = target: T1, His-Ash1 (purified recombinant) (S. cerevisiae, UniProt P34233 1-588)
T1 sequence (looked up): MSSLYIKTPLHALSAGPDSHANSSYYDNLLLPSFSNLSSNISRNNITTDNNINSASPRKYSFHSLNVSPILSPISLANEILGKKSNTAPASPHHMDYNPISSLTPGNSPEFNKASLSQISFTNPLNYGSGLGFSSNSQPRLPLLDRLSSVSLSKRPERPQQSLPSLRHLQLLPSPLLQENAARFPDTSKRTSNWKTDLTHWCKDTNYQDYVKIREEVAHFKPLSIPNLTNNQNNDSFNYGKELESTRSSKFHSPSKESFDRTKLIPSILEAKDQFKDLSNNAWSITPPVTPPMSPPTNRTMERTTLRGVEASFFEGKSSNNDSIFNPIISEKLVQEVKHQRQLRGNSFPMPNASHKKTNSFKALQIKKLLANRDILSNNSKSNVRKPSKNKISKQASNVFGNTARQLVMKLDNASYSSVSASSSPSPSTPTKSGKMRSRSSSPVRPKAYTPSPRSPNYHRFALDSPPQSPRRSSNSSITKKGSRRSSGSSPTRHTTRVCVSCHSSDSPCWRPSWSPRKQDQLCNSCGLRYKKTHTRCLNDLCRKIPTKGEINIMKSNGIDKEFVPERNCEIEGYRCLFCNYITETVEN

[2] = target: T2, His-Ash1-2SA (Ash1-S149A S388A) (S. cerevisiae, UniProt P34233 1-588, S149A | S388A)
T2 sequence (looked up): T1 sequence (looked up) with S149A, S388A

[3] = target: T3, His-Ash1 phosphorylated by Tpk2-CBP (S. cerevisiae, UniProt P34233 1-588, phosphorylated by Tpk2-CBP at S149 and S388)
T3 sequence (looked up): T1 sequence (looked up)

- binding result [1]: binds
- binding result [2]: binds
- binding result [3]: binds
B1: Ubp8-FLAG (purified recombinant) (enzyme, S. cerevisiae, UniProt P50102 1-471, looked up)
chain: MSICPHIQQVFQNEKSKDGVLKTCNAARYILNHSVPKEKFLNTMKCGTCHEINSGATFMCLQCGFCGCWNHSHFLSHSKQIGHIFGINSNNGLLFCFKCEDYIGNIDLINDAILAKYWDDVCTKTMVPSMERRDGLSGLINMGSTCFMSSILQCLIHNPYFIRHSMSQIHSNNCKVRSPDKCFSCALDKIVHELYGALNTKQASSSSTSTNRQTGFIYLLTCAWKINQNLAGYSQQDAHEFWQFIINQIHQSYVLDLPNAKEVSRANNKQCECIVHTVFEGSLESSIVCPGCQNNSKTTIDPFLDLSLDIKDKKKLYECLDSFHKKEQLKDFNYHCGECNSTQDAIKQLGIHKLPSVLVLQLKRFEHLLNGSNRKLDDFIEFPTYLNMKNYCSTKEKDKHSENGKVPDIIYELIGIVSHKGTVNEGHYIAFCKISGGQWFKFNDSMVSSISQEEVLKEQAYLLFYTIRQVN
